This is an account of results in publication PMC8758478.

Assay [1] deals with recombinant α-secretase N-terminal soluble form of APP695 (sAPPα^695) (human). Description: AUC; sedimentation velocity, 50,000 rpm, absorbance at 280 nm, c(S) model (Sedfit); APP 2.5 μM with holo-Lf 2.5, 3.75, 5 μM or apo-Lf 2.5, 12.5 μM; weight average sedimentation coefficients fitted to a two-site binding model.
Assay [2] has the same target. Description: other fluorescence titration; native tryptophan fluorescence, excitation 295 nm, change of intensity at 340 nm against Lf concentration, fitted to two independent sites on an acceptor; 96-well quartz microplate.

“holo-lactoferrin (iron-bound form of Lf) (natural protein)”: in assay [1], the Kd1:1 (first site, two-site binding model) is 620 nM; the Kd1:2 (second site, two-site binding model) was 8.2 µM; the stoichiometry N (Lf molecules per sAPPα695 molecule) stood at 2. In addition, in assay [2], the Kd1:1 (first site, two-site model) worked out at 690 nM and the Kd1:2 (second site, two-site model) turned out to be 9.4 µM.
